Experimental data taken from patent publication US20210388110A1 (published 2021).

target: T1, soluble human GPC3 (human, UniProt P51654 25-563, limits assumed); experiment: SPR (Biacore), soluble human GPC3
T1 construct: soluble human GPC3 as analyte; also called glypican 3
T1 sequence (P51654 other isoform, or with tags, fused parts or gaps limits assumed, form in doubt): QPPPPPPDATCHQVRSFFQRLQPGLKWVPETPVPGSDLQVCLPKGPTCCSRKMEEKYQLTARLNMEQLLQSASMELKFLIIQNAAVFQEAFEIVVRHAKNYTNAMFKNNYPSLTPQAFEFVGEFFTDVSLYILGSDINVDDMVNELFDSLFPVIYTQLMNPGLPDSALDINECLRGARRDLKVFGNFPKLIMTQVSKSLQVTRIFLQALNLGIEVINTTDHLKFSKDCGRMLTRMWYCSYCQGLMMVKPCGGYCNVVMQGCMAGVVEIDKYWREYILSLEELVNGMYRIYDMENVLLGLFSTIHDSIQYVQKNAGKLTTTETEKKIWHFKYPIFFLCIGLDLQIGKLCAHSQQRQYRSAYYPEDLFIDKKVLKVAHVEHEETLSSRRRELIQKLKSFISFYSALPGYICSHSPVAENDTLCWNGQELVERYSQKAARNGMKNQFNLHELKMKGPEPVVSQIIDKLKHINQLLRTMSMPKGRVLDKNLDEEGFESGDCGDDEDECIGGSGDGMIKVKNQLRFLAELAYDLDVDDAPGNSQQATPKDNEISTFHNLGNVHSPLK

Row | Kd [nM] | Binder
1 | 2.99 | H0610-G1dh/none-Hi-Kn010G3/L0009-k0 (antibody, human IgG1, kappa, single-arm (one Fab)) heavy: not shown EPKSSDKTHTCPPCPAPELLGGPSVFLFPPKPKDTLMISRTPEVTCVVVDVSHEDPEVKFNWYVDGVEVHNAKTKPREEQYNSTYRVVSVLTVLHQDWLNGKEYKCKVSNKALPAPIEKTISKAKGQPREPQVCTLPPSRDELTKNQVSLWCLVKGFYPSDIAVEWESNGQPENNYKTTPPVLDSDGSFFLYSKLTVDKSRWQQGNVFSCSVMHEALHNRYTQKSLSLSP light: DIVMTQSPLSLPVTPGEPASISCRSPQSLVHSNRNTYLHWYQQKPGQAPRLLIYKVSNRFSGVPDRFSGSGSGTDFTLKISRVEAEDVGVYYCGQGTQVPYTFGQGTKLEIKRTVAAPSVFIFPPSDEQLKSGTASVVCLLNNFYPREAKVQWKVDNALQSGNSQESVTEQDSKDSTYSLSSTLTLSKADYEKHKVYACEVTHQGLSSPVTKSFNRGEC
2 | 2.76 | H0610-G1dh/none-Hi-Kn010G3/L0011-k0 (antibody, human IgG1, kappa, single-arm (one Fab)) heavy: not shown EPKSSDKTHTCPPCPAPELLGGPSVFLFPPKPKDTLMISRTPEVTCVVVDVSHEDPEVKFNWYVDGVEVHNAKTKPREEQYNSTYRVVSVLTVLHQDWLNGKEYKCKVSNKALPAPIEKTISKAKGQPREPQVCTLPPSRDELTKNQVSLWCLVKGFYPSDIAVEWESNGQPENNYKTTPPVLDSDGSFFLYSKLTVDKSRWQQGNVFSCSVMHEALHNRYTQKSLSLSP light: DIVMTQSPLSLPVTPGEPASISCRSSQPLVHSNRNTYLHWYQQKPGQAPRLLIYKVSNRFSGVPDRFSGSGSGTDFTLKISRVEAEDVGVYYCGQGTQVPYTFGQGTKLEIKRTVAAPSVFIFPPSDEQLKSGTASVVCLLNNFYPREAKVQWKVDNALQSGNSQESVTEQDSKDSTYSLSSTLTLSKADYEKHKVYACEVTHQGLSSPVTKSFNRGEC
3 | 2.75 | H0610-G1dh/none-Hi-Kn010G3/L0038-k0 (antibody, human IgG1, kappa, single-arm (one Fab)) heavy: not shown EPKSSDKTHTCPPCPAPELLGGPSVFLFPPKPKDTLMISRTPEVTCVVVDVSHEDPEVKFNWYVDGVEVHNAKTKPREEQYNSTYRVVSVLTVLHQDWLNGKEYKCKVSNKALPAPIEKTISKAKGQPREPQVCTLPPSRDELTKNQVSLWCLVKGFYPSDIAVEWESNGQPENNYKTTPPVLDSDGSFFLYSKLTVDKSRWQQGNVFSCSVMHEALHNRYTQKSLSLSP light: DIVMTQSPLSLPVTPGEPASISCRSSQSLVHFNRNTYLHWYQQKPGQAPRLLIYKVSNRFSGVPDRFSGSGSGTDFTLKISRVEAEDVGVYYCGQGTQVPYTFGQGTKLEIKRTVAAPSVFIFPPSDEQLKSGTASVVCLLNNFYPREAKVQWKVDNALQSGNSQESVTEQDSKDSTYSLSSTLTLSKADYEKHKVYACEVTHQGLSSPVTKSFNRGEC
4 | 1.31 | H0610-G1dh/none-Hi-Kn010G3/L0015-k0 (antibody, human IgG1, kappa, single-arm (one Fab)) heavy: not shown EPKSSDKTHTCPPCPAPELLGGPSVFLFPPKPKDTLMISRTPEVTCVVVDVSHEDPEVKFNWYVDGVEVHNAKTKPREEQYNSTYRVVSVLTVLHQDWLNGKEYKCKVSNKALPAPIEKTISKAKGQPREPQVCTLPPSRDELTKNQVSLWCLVKGFYPSDIAVEWESNGQPENNYKTTPPVLDSDGSFFLYSKLTVDKSRWQQGNVFSCSVMHEALHNRYTQKSLSLSP light: DIVMTQSPLSLPVTPGEPASISCRSSQSPVHSNRNTYLHWYQQKPGQAPRLLIYKVSNRFSGVPDRFSGSGSGTDFTLKISRVEAEDVGVYYCGQGTQVPYTFGQGTKLEIKRTVAAPSVFIFPPSDEQLKSGTASVVCLLNNFYPREAKVQWKVDNALQSGNSQESVTEQDSKDSTYSLSSTLTLSKADYEKHKVYACEVTHQGLSSPVTKSFNRGEC
5 | 1.82 | H0610-G1dh/none-Hi-Kn010G3/L0014-k0 (antibody, human IgG1, kappa, single-arm (one Fab)) heavy: not shown EPKSSDKTHTCPPCPAPELLGGPSVFLFPPKPKDTLMISRTPEVTCVVVDVSHEDPEVKFNWYVDGVEVHNAKTKPREEQYNSTYRVVSVLTVLHQDWLNGKEYKCKVSNKALPAPIEKTISKAKGQPREPQVCTLPPSRDELTKNQVSLWCLVKGFYPSDIAVEWESNGQPENNYKTTPPVLDSDGSFFLYSKLTVDKSRWQQGNVFSCSVMHEALHNRYTQKSLSLSP light: DIVMTQSPLSLPVTPGEPASISCRSSQSMVHSNRNTYLHWYQQKPGQAPRLLIYKVSNRFSGVPDRFSGSGSGTDFTLKISRVEAEDVGVYYCGQGTQVPYTFGQGTKLEIKRTVAAPSVFIFPPSDEQLKSGTASVVCLLNNFYPREAKVQWKVDNALQSGNSQESVTEQDSKDSTYSLSSTLTLSKADYEKHKVYACEVTHQGLSSPVTKSFNRGEC

Further lines, the binder ahead of its results:

Row | Binder | Kd [nM]
6 | H0610-G1dh/none-Hi-Kn010G3/L0003-k0 (antibody, human IgG1, kappa, single-arm (one Fab)) heavy: not shown EPKSSDKTHTCPPCPAPELLGGPSVFLFPPKPKDTLMISRTPEVTCVVVDVSHEDPEVKFNWYVDGVEVHNAKTKPREEQYNSTYRVVSVLTVLHQDWLNGKEYKCKVSNKALPAPIEKTISKAKGQPREPQVCTLPPSRDELTKNQVSLWCLVKGFYPSDIAVEWESNGQPENNYKTTPPVLDSDGSFFLYSKLTVDKSRWQQGNVFSCSVMHEALHNRYTQKSLSLSP light: DIVMTQSPLSLPVTPGEPASISCRISQSLVHSNRNTYLHWYQQKPGQAPRLLIYKVSNRFSGVPDRFSGSGSGTDFTLKISRVEAEDVGVYYCGQGTQVPYTFGQGTKLEIKRTVAAPSVFIFPPSDEQLKSGTASVVCLLNNFYPREAKVQWKVDNALQSGNSQESVTEQDSKDSTYSLSSTLTLSKADYEKHKVYACEVTHQGLSSPVTKSFNRGEC | 4.01
7 | H0610-G1dh/none-Hi-Kn010G3/L0013-k0 (antibody, human IgG1, kappa, single-arm (one Fab)) heavy: not shown EPKSSDKTHTCPPCPAPELLGGPSVFLFPPKPKDTLMISRTPEVTCVVVDVSHEDPEVKFNWYVDGVEVHNAKTKPREEQYNSTYRVVSVLTVLHQDWLNGKEYKCKVSNKALPAPIEKTISKAKGQPREPQVCTLPPSRDELTKNQVSLWCLVKGFYPSDIAVEWESNGQPENNYKTTPPVLDSDGSFFLYSKLTVDKSRWQQGNVFSCSVMHEALHNRYTQKSLSLSP light: DIVMTQSPLSLPVTPGEPASISCRSSQSIVHSNRNTYLHWYQQKPGQAPRLLIYKVSNRFSGVPDRFSGSGSGTDFTLKISRVEAEDVGVYYCGQGTQVPYTFGQGTKLEIKRTVAAPSVFIFPPSDEQLKSGTASVVCLLNNFYPREAKVQWKVDNALQSGNSQESVTEQDSKDSTYSLSSTLTLSKADYEKHKVYACEVTHQGLSSPVTKSFNRGEC | 3.35
8 | H0610-G1dh/none-Hi-Kn010G3/L0012-k0 (antibody, human IgG1, kappa, single-arm (one Fab)) heavy: not shown EPKSSDKTHTCPPCPAPELLGGPSVFLFPPKPKDTLMISRTPEVTCVVVDVSHEDPEVKFNWYVDGVEVHNAKTKPREEQYNSTYRVVSVLTVLHQDWLNGKEYKCKVSNKALPAPIEKTISKAKGQPREPQVCTLPPSRDELTKNQVSLWCLVKGFYPSDIAVEWESNGQPENNYKTTPPVLDSDGSFFLYSKLTVDKSRWQQGNVFSCSVMHEALHNRYTQKSLSLSP light: DIVMTQSPLSLPVTPGEPASISCRSSQSFVHSNRNTYLHWYQQKPGQAPRLLIYKVSNRFSGVPDRFSGSGSGTDFTLKISRVEAEDVGVYYCGQGTQVPYTFGQGTKLEIKRTVAAPSVFIFPPSDEQLKSGTASVVCLLNNFYPREAKVQWKVDNALQSGNSQESVTEQDSKDSTYSLSSTLTLSKADYEKHKVYACEVTHQGLSSPVTKSFNRGEC | 1.55
9 | H0610-G1dh/none-Hi-Kn010G3/L0006-k0 (antibody, human IgG1, kappa, single-arm (one Fab)) heavy: not shown EPKSSDKTHTCPPCPAPELLGGPSVFLFPPKPKDTLMISRTPEVTCVVVDVSHEDPEVKFNWYVDGVEVHNAKTKPREEQYNSTYRVVSVLTVLHQDWLNGKEYKCKVSNKALPAPIEKTISKAKGQPREPQVCTLPPSRDELTKNQVSLWCLVKGFYPSDIAVEWESNGQPENNYKTTPPVLDSDGSFFLYSKLTVDKSRWQQGNVFSCSVMHEALHNRYTQKSLSLSP light: DIVMTQSPLSLPVTPGEPASISCRPSQSLVHSNRNTYLHWYQQKPGQAPRLLIYKVSNRFSGVPDRFSGSGSGTDFTLKISRVEAEDVGVYYCGQGTQVPYTFGQGTKLEIKRTVAAPSVFIFPPSDEQLKSGTASVVCLLNNFYPREAKVQWKVDNALQSGNSQESVTEQDSKDSTYSLSSTLTLSKADYEKHKVYACEVTHQGLSSPVTKSFNRGEC | 3.04
10 | H0610-G1dh/none-Hi-Kn010G3/L0016-k0 (antibody, human IgG1, kappa, single-arm (one Fab)) heavy: not shown EPKSSDKTHTCPPCPAPELLGGPSVFLFPPKPKDTLMISRTPEVTCVVVDVSHEDPEVKFNWYVDGVEVHNAKTKPREEQYNSTYRVVSVLTVLHQDWLNGKEYKCKVSNKALPAPIEKTISKAKGQPREPQVCTLPPSRDELTKNQVSLWCLVKGFYPSDIAVEWESNGQPENNYKTTPPVLDSDGSFFLYSKLTVDKSRWQQGNVFSCSVMHEALHNRYTQKSLSLSP light: DIVMTQSPLSLPVTPGEPASISCRSSQSVVHSNRNTYLHWYQQKPGQAPRLLIYKVSNRFSGVPDRFSGSGSGTDFTLKISRVEAEDVGVYYCGQGTQVPYTFGQGTKLEIKRTVAAPSVFIFPPSDEQLKSGTASVVCLLNNFYPREAKVQWKVDNALQSGNSQESVTEQDSKDSTYSLSSTLTLSKADYEKHKVYACEVTHQGLSSPVTKSFNRGEC | 4.44
11 | H0610-G1dh/none-Hi-Kn010G3/L0032-k0 (antibody, human IgG1, kappa, single-arm (one Fab)) heavy: not shown EPKSSDKTHTCPPCPAPELLGGPSVFLFPPKPKDTLMISRTPEVTCVVVDVSHEDPEVKFNWYVDGVEVHNAKTKPREEQYNSTYRVVSVLTVLHQDWLNGKEYKCKVSNKALPAPIEKTISKAKGQPREPQVCTLPPSRDELTKNQVSLWCLVKGFYPSDIAVEWESNGQPENNYKTTPPVLDSDGSFFLYSKLTVDKSRWQQGNVFSCSVMHEALHNRYTQKSLSLSP light: DIVMTQSPLSLPVTPGEPASISCRSSQSLVRSNRNTYLHWYQQKPGQAPRLLIYKVSNRFSGVPDRFSGSGSGTDFTLKISRVEAEDVGVYYCGQGTQVPYTFGQGTKLEIKRTVAAPSVFIFPPSDEQLKSGTASVVCLLNNFYPREAKVQWKVDNALQSGNSQESVTEQDSKDSTYSLSSTLTLSKADYEKHKVYACEVTHQGLSSPVTKSFNRGEC | 3.72
12 | H0610-G1dh/none-Hi-Kn010G3/L0008-k0 (antibody, human IgG1, kappa, single-arm (one Fab)) heavy: not shown EPKSSDKTHTCPPCPAPELLGGPSVFLFPPKPKDTLMISRTPEVTCVVVDVSHEDPEVKFNWYVDGVEVHNAKTKPREEQYNSTYRVVSVLTVLHQDWLNGKEYKCKVSNKALPAPIEKTISKAKGQPREPQVCTLPPSRDELTKNQVSLWCLVKGFYPSDIAVEWESNGQPENNYKTTPPVLDSDGSFFLYSKLTVDKSRWQQGNVFSCSVMHEALHNRYTQKSLSLSP light: DIVMTQSPLSLPVTPGEPASISCRVSQSLVHSNRNTYLHWYQQKPGQAPRLLIYKVSNRFSGVPDRFSGSGSGTDFTLKISRVEAEDVGVYYCGQGTQVPYTFGQGTKLEIKRTVAAPSVFIFPPSDEQLKSGTASVVCLLNNFYPREAKVQWKVDNALQSGNSQESVTEQDSKDSTYSLSSTLTLSKADYEKHKVYACEVTHQGLSSPVTKSFNRGEC | 3.3
13 | H0610-G1dh/none-Hi-Kn010G3/L0007-k0 (antibody, human IgG1, kappa, single-arm (one Fab)) heavy: not shown EPKSSDKTHTCPPCPAPELLGGPSVFLFPPKPKDTLMISRTPEVTCVVVDVSHEDPEVKFNWYVDGVEVHNAKTKPREEQYNSTYRVVSVLTVLHQDWLNGKEYKCKVSNKALPAPIEKTISKAKGQPREPQVCTLPPSRDELTKNQVSLWCLVKGFYPSDIAVEWESNGQPENNYKTTPPVLDSDGSFFLYSKLTVDKSRWQQGNVFSCSVMHEALHNRYTQKSLSLSP light: DIVMTQSPLSLPVTPGEPASISCRTSQSLVHSNRNTYLHWYQQKPGQAPRLLIYKVSNRFSGVPDRFSGSGSGTDFTLKISRVEAEDVGVYYCGQGTQVPYTFGQGTKLEIKRTVAAPSVFIFPPSDEQLKSGTASVVCLLNNFYPREAKVQWKVDNALQSGNSQESVTEQDSKDSTYSLSSTLTLSKADYEKHKVYACEVTHQGLSSPVTKSFNRGEC | 4.39
